In publication PMC4361550, “Biophysical Analysis of Anopheles gambiae Leucine-Rich Repeat Proteins APL1A^1, APL1B and APL1C and Their Interaction with LRIM1” (PLoS ONE, 2015):

Molecular target: the molecule itself
Assay: SEC; Superdex 75 (10/300), proteins at 1 mg/ml, 100 mM NaCl, 20 mM HEPES pH 7.5; apparent molecular weight against mass standards

B1: APL1B LRR domain (APL1B-LRR) (domain or fragment, Anopheles gambiae, UniProt A7URS4 21-370, looked up)
chain: GQLSYKSMHLTPFTLSALLASFHKVEVLNLNGLQIEEIDTNAFAYAHTIQKLYMRFNVIRYLPPHVFQNVPLLTVLMLDRNDLSSLPPGIFHNTPKLTMLSMSNNNLERIEDDTFQATTSLQNLQLSSNRLTHVDLALIPSLFHVNVSYNLLSTLAIPIAVEELDASHNSINVVRGPVNVELTILKLQHNNLTDTAWLLNYPGLTDVDLSYNQLEIITIHHFVTMQRLERLHVSNNRLVAFDLYGRPIPTLKVLDLSHNHLMWVEHNQAQFDKLQYLYLDHNSIVTLKLSTSHTIKNLTLSHNDWDCNSLRALFRNVARPVVDDADQYCKIDYHLEHGLCCKESDKPYLD
modifications: N-linked glycosylation (predicted at Asn166, Asn211, Asn317; N-acetylglucosamine resolved at Asn166)
notes: APL1B of Anopheles gambiae, allele from strain G3, LRR domain; cloned as residues 1-370 with its signal peptide; the crystallized protein comprises APL1B 21-370 and a C-terminal 6xHis tag; Model in PDB 4XGO holds residues 25-364 (chain A) and 27-364 (chain B); source: T. ni cells (baculovirus, Bac-to-Bac), purified (Talon, MonoS, SEC); not shown: 6xHis, C-terminal, kept
stoichiometry N: 2
